T1: Human long CD146 protein
T1 chain: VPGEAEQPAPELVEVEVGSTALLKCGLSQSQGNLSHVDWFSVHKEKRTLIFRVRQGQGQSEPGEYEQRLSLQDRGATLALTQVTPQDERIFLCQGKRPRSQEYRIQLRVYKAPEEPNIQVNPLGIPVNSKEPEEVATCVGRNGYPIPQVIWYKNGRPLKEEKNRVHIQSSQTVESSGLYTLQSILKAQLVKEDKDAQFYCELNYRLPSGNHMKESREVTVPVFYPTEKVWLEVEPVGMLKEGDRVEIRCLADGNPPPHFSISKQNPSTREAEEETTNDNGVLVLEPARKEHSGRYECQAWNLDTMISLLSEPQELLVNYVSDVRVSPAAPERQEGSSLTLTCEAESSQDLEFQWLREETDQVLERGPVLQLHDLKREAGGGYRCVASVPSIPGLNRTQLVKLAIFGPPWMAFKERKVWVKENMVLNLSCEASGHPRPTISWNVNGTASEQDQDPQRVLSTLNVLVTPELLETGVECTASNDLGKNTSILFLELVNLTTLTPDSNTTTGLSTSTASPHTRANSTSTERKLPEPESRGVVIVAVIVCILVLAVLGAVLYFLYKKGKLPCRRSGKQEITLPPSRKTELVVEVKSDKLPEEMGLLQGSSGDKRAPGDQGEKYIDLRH

T2: ADAM10 (UniProt O14672 214-748, limits assumed)
T2 construct: Endogenous protein of ECFC endothelial cells
T2 sequence (looked up): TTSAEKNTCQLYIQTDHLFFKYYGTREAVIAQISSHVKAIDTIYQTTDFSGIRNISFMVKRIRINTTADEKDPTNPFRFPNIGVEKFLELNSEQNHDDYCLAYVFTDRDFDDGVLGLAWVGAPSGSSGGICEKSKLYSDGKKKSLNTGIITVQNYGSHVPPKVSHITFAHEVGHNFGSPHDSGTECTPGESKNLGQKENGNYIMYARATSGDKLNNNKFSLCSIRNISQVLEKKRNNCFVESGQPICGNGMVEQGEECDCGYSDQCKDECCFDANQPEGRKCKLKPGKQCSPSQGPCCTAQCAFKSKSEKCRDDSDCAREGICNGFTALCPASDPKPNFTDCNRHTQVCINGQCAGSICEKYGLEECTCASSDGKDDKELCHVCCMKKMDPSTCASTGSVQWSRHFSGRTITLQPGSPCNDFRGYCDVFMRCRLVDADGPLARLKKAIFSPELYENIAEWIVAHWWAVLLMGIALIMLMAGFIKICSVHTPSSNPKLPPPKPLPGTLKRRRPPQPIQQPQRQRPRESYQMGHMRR

B1: ADAM10 (protein)
chain: T2 sequence (looked up)
B2: Human short CD146 protein (other)
chain: VPGEAEQPAPELVEVEVGSTALLKCGLSQSQGNLSHVDWFSVHKEKRTLIFRVRQGQGQSEPGEYEQRLSLQDRGATLALTQVTPQDERIFLCQGKRPRSQEYRIQLRVYKAPEEPNIQVNPLGIPVNSKEPEEVATCVGRNGYPIPQVIWYKNGRPLKEEKNRVHIQSSQTVESSGLYTLQSILKAQLVKEDKDAQFYCELNYRLPSGNHMKESREVTVPVFYPTEKVWLEVEPVGMLKEGDRVEIRCLADGNPPPHFSISKQNPSTREAEEETTNDNGVLVLEPARKEHSGRYECQAWNLDTMISLLSEPQELLVNYVSDVRVSPAAPERQEGSSLTLTCEAESSQDLEFQWLREETDQVLERGPVLQLHDLKREAGGGYRCVASVPSIPGLNRTQLVKLAIFGPPWMAFKERKVWVKENMVLNLSCEASGHPRPTISWNVNGTASEQDQDPQRVLSTLNVLVTPELLETGVECTASNDLGKNTSILFLELVNLTTLTPDSNTTTGLSTSTASPHTRANSTSTERKLPEPESRGVVIVAVIVCILVLAVLGAVLYFLYKKGKLPCRRSGKQEMERNTSI
notes: Endogenous membrane isoform in ECFC, detected by western blot in immunoprecipitates from cell lysates; also expressed from a plasmid in CHO cells; also called shCD146; short isoform of CD146

Columns and labels:
[1] = molecular target: T1, Human long CD146 protein
[2] = molecular target: T2, ADAM10; assay: co-immunoprecipitation from ECFC in control condition (ADAM10 immunoprecipitated, CD146 isoforms detected by western blot)
Source text: C: ADAM10 was immunoprecipitated in ECFC cultured in basal condition (EBM2). The long (IgCD146) and short (shCD146) isoforms of CD146 were then detected by western blot using specific antibodies. Results are representative of 3 different experiments.

Binder | reduction of sCD146 secretion by ECFC under TNF after ADAM10 siRNA [1] | sCD146 secretion by ECFC in control condition after siRNA [1] | sCD146 secretion by a CHO clone stably expressing lgCD146 after transfection with an ADAM10 plasmid [1] | binding result [2]
B1 | ADAM10 and Tace siRNA reduced sCD146 secretion by 60% and 25%, respectively | only ADAM10 siRNA was able to inhibit sCD146 secretion and that the effect was similar to that of GM6001 | in the presence of ADAM10, sCD146 secretion was significantly increased | 
B2 |  |  |  | no binding

Source: US20220003784A1 (ASSISTANCE PUBLIQUE H PITAUX DE MARSEILLE, published 2022)
